The source of these data is patent US11059903B2, “Anti-PSMA antibodies, uses thereof and conjugates thereof” (Polytherics Limited, priority 2016, dated 2021).

As a reminder, the pIC50 is the IC50 on a negative log10 scale, so that one unit is a factor of ten. Read a low pIC50 as a high IC50.

pIC50: −log10 of the molar value. Square brackets hold non-standard residues; d marks the D form. Peptide text beside a SMILES is read from it. * marks the point of attachment. Dolaproine = CO[C@@H]([C@@H]1CCCN1)[C@@H](C)C(=O)O; Dil = CC[C@H](C)[C@H](NC)[C@@H](CC(=O)O)OC; X1 = C[C@@H](N*)[C@@H](O)c1ccccc1; NMeV = CN[C@H](C(=O)O)C(C)C

For one series, the system named is LNCaP cells. Put plainly: In vitro cell viability assay (CellTiter Glo) on LNCaP cells. The class given is cell-based. Conditions: anti-proliferative effect, 96 h. The method, then: (§1) The in vitro efficacies of ADCs 1 to 7, prepared as described within Example 4, were determined by measuring their inhibitory effect upon cell growth of PSMA over-expressing cancer cell lines.
(§2) Loss of tumour cell viability following treatment with cytotoxic drugs or ADCs in vitro can be measured by growing cell lines in the presence of increasing concentrations of drugs or ADCs and quantifying the loss of proliferation or metabolic activity using CellTiter Glo® Luminescence reagent (Promega Corp.). The protocol describes cell seeding, drug treatment and determination of the cell viability in reference to untreated cells based on ATP synthesis, which is directly related to the number of cells present in the well. […]
(§3) The cell viability assay was carried out using the Cell-Titer Glo® Luminescence reagent, as described by the manufacturer's instructions, (Promega Corp. Technical Bulletin TB288; Lewis Phillips G. D, Cancer Res 2008; 68:9280-9290). Luminescence was recorded using a plate reader (e.g. Molecular Devices Spectramax M3 plate reader), and data subsequently analysed using a four parameter non-linear regression model. […]
(§4) PSMA-positive LNCaP (clone FGC) and C4-2 cells were detached with TrypLE and resuspended in complete medium. Cells were counted using disposable Neubauer counting chambers and cell density adjusted to 10×10^4 cells/mL for LNCaP and 2×10^4 cells/mL for C4-2. […]
(Cellular ATP, detected with luciferase, serves as a proxy for viable cell number.)

In a further series the test system is C4-2 cells. Put plainly: In vitro cell viability assay (CellTiter Glo) on C4-2 cells. The format is cell-based. Conditions: anti-proliferative effect, 96 h. How it is done:
as §1, §2, §3, §4

Series [1] can be described thus: Heat stress test, aggregation analysed by SEC. The class given is physicochemical. The method, then:
Antibody samples (0.5 mg/mL in PBS) were incubated at 75° C. for 30 min followed by incubation in an ice-bath for 5 min prior to being analysed for their extent of aggregation. Analysis of antibody solutions was carried out by Size Exclusion Chromatography (SEC) and by turbidity measurements.
SEC was performed using a TOSOH Bioscience TSK gel Super SW 3000 column. UV absorbance at 280 nm was monitored during an isocratic elution with a 0.2 M Potassium phosphate buffer, pH 6.8 (0.2 M potassium chloride and 15% isopropanol). The elution times and number of peaks indicate whether the sample contains aggregated, degraded or native antibody. The % area under the curve (Abs280) was used to determine the quantity of each species present in the SEC analysis.

Setting [2] is: post stress test: 0.5 mg/mL in PBS, 75° C. for 30 min, SEC % area.

For the compound `CC[C@H](C)[C@@H]([C@@H](CC(=O)N1CCC[C@H]1[C@H](OC)[C@@H](C)C(=O)N[C@H](C)[C@@H](O)c1ccccc1)OC)N(C)C(=O)[C@@H](NC(=O)[C@@H](NC)C(C)C)C(C)C` [MMAE] (H-[NMeV]V[Dil][Dolaproine]-X1), the pIC50 in the series on LNCaP cells was 8.65; in the series with C4-2 cells, 9.20.
With “AB-10: Prior art de-immunised J591 anti-PSMA antibody, heavy chain SEQ ID No 3, light chain SEQ ID No 4 [reference compound]”, the “Stability compared with AB-02 to AB-06 antibodies” value in series [1] (heat stress test, in words) is given as “less stable”. For the same compound, in series [1] (setting [2]), the “Ab in aggregated form (%)” value turned out to be 99.6% and the “Ab in native conformation (%)” value is listed as 0.4%.
